Assay results taken from publication doi:10.1101/2023.03.13.532366 (bioRxiv, 2023).
Like-named read-outs stand apart in the source and are kept apart here.

T1: hIL-12B (p40), subunit of hIL-23 in the cryo-EM complex (human, UniProt P29460 23-328)
T1 sequence (looked up): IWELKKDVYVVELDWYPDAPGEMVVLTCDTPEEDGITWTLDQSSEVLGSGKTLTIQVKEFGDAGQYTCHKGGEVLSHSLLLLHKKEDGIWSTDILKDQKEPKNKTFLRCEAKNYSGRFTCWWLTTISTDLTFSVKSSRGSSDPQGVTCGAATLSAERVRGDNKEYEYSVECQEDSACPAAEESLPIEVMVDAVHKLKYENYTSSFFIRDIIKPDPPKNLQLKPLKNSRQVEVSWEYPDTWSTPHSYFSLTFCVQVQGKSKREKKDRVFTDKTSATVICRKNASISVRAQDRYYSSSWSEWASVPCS

T2: hIL-12B (p40) of the crystallised hIL-23 (hIL-23a:hIL-12b co-transfection) (human, UniProt P29460 23-328)
T2 sequence (looked up): T1 sequence (looked up)

T3: mIL-12Rβ2_(D1-D6)-Strep-II Tag (non pre-dimerized) (mouse, UniProt P97378 24-637)
T3 sequence (looked up): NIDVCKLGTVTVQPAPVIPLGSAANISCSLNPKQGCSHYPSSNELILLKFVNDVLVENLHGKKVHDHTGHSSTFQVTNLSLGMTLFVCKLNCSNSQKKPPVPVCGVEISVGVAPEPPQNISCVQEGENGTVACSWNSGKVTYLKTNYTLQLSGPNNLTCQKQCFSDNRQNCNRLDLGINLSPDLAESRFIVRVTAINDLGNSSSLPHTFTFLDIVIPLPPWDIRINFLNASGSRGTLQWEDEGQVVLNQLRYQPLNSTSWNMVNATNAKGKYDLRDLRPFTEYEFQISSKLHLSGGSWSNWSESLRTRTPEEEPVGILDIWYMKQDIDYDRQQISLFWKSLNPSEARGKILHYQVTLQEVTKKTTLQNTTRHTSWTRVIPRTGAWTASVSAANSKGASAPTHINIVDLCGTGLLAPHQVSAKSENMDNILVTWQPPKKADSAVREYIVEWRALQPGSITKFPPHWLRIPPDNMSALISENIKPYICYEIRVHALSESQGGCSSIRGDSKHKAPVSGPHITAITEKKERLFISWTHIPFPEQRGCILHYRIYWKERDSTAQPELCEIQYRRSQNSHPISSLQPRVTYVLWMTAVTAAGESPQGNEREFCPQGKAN

T4: mIL-12B (p40), untagged, of the crystallised mIL-12 (mouse, UniProt P43432 23-335)
T4 sequence (looked up): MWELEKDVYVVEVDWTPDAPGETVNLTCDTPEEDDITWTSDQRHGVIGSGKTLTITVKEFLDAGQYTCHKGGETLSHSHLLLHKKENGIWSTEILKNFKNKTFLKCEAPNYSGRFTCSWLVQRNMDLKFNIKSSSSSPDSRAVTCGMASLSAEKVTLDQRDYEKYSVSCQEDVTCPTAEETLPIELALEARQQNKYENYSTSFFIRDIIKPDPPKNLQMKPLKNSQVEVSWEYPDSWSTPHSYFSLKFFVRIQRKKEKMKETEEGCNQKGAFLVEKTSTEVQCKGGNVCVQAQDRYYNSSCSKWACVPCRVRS

B1: hIL-23A (p19), subunit of hIL-23 in the cryo-EM complex (natural protein, human, UniProt Q9NPF7 20-189, looked up)
chain: RAVPGGSSPAWTQCQQLSQKLCTLAWSAHPLVGHMDLREEGDEETTNDVPHIQCGDGCDPQGLRDNSQFCLQRIHQGLIFYEKLLGSDIFTGEPSLLPDSPVGQLHASLLGLSQLLQPEGHHWETQQIPSLSPSQPWQRLLLRFKILRSLQAFVAVAARVFAHGAATLSP
B2: hIL-23A (p19) of the crystallised hIL-23 (hIL-23a:hIL-12b co-transfection) (natural protein, human, UniProt Q9NPF7 20-189, looked up)
chain: B1 chain
B3: mIL-12Rβ1_(D1-D5)-Strep-II Tag (non pre-dimerized) (receptor, mouse, UniProt Q60837 20-565, looked up)
chain: QLGASGPGDGCCVEKTSFPEGASGSPLGPRNLSCYRVSKTDYECSWQYDGPEDNVSHVLWCCFVPPNHTHTGQERCRYFSSGPDRTVQFWEQDGIPVLSKVNFWVESRLGNRTMKSQKISQYLYNWTKTTPPLGHIKVSQSHRQLRMDWNVSEEAGAEVQFRRRMPTTNWTLGDCGPQVNSGSGVLGDIRGSMSESCLCPSENMAQEIQIRRRRRLSSGAPGGPWSDWSMPVCVPPEVLPQAKIKFLVEPLNQGGRRRLTMQGQSPQLAVPEGCRGRPGAQVKKHLVLVRMLSCRCQAQTSKTVPLGKKLNLSGATYDLNVLAKTRFGRSTIQKWHLPAQELTETRALNVSVGGNMTSMQWAAQAPGTTYCLEWQPWFQHRNHTHCTLIVPEEEDPAKMVTHSWSSKPTLEQEECYRITVFASKNPKNPMLWATVLSSYYFGGNASRAGTPRHVSVRNQTGDSVSVEWTASQLSTCPGVLTQYVVRCEAEDGAWESEWLVPPTKTQVTLDGLRSRVMYKVQVRADTARLPGAWSHPQRFSFEVQIS
B4: mIL-12A (p35), untagged subunit of mIL-12 in the cryo-EM complexes (natural protein, mouse, UniProt P43431 23-215, looked up)
chain: RVIPVSGPARCLSQSRNLLKTTDDMVKTAREKLKHYSCTAEDIDHEDITRDQTSTLKTCLPLELHKNESCLATRETSSTTRGSCLPPQKTSLMMTLCLGSIYEDLKMYQTEFQAINAALQNHNHQQIILDKGMLVAIDELMQSLNHNGETLRQKPPVGEADPYRVKMKLCILLHAFSTRVVTINRVMGYLSSA
B5: mIL-12A (p35) of the crystallised mIL-12 (mIL-12a-AviTag-His6, digested with Caspase-3) (natural protein, mouse, UniProt P43431 23-215, looked up)
chain: B4 chain
B6: Fab4_(CrystalKappa) (Crystal Kappa form of Fab4) (Fab, V domains shown)
VH: QVQLVESGGGVVQPGRSLRLSCAASGFTFTSYGMSWVRQAPGKGLEWVAGISYDASDTEYADSVKGRFTISRDNSKNTLYLQMNSLRAEDTAVYYCARSPDYIIDYGFDYWGRGTLVTVSS
VL: AIQMTQSPSSLSASVGDRVTITCRASQGISSDLAWYQQKPGKAPKLLIYDASSLQSGVPSRFSGSGSGTDFTLTISSLQPEDFATYYCQQYWWYPFTFGQGTKVEIK
B7: Fab4 (wild-type; antigen-binding portion of an antagonistic anti-IL-12Rβ1 antibody) (Fab, V domains shown)
VH: B6 VH
VL: B6 VL
B8: mIL-12B (p40), subunit of mIL-12 in the cryo-EM complexes (mIL-12b-Casp3-AviTag-His6, tags cleaved) (natural protein, mouse, UniProt P43432 23-335, looked up)
chain: T4 sequence (looked up)
B9: murine IL-12 (mIL-12), heterodimer of mIL-12A (p35) and mIL-12B (p40), as in the cryo-EM receptor complexes (complex, mouse)
chain 1: B4 chain
chain 2: T4 sequence (looked up)

How the values were obtained:
[1] = biological target: T1, hIL-12B (p40), subunit of hIL-23 in the …; assay: cryo-EM structure
[2] = biological target: hIL-23R-CaM (complete extracellular segment of human IL-23 receptor fused to calmodulin) (human, UniProt Q5VWK5 24-355; P0DP23 5-149); assay: cryo-EM structure
[3] = biological target: T2, hIL-12B (p40) of the crystallised …; assay: crystal structure
[4] = biological target: T3, mIL-12Rβ2_(D1-D6)-Strep-II Tag (non …); assay: cryo-EM structure
[5] = biological target: B8; assay: cryo-EM structure
[6] = biological target: T4, mIL-12B (p40), untagged, of the …; assay: crystal structure
[7] = biological target: T5, hIL-12Rβ1_(D3-D5) (domains 3 to 5 of human IL-12 receptor β1) (human, UniProt P42701); assay: crystal structure
[8] = biological target: T5, hIL-12Rβ1_(D3-D5) (domains 3 to 5 of …); assay: crystal structure; remark: listed apart in the source
[9] = biological target: B3; assay: cryo-EM structure

B1
binding result [1]: binds | binding result [2]: binds

B2
binding result [3]: binds

B3
binding result [4]: binds

B4
binding result [5]: binds | binding result [4]: binds

B5
binding result [6]: binds

B6
binding result [7]: binds

B7
binding result [8]: binds

B8
binding result [9]: binds

B9
binding result [9]: binds | binding result [4]: binds
